Measurements taken from patent US20130224798A1.

Biological target: Toll-like Receptor 5 (TLR5) constitutively expressed by HEK293 cells (UniProt O60602)
Assay: cell-based or functional assay

B1: STF2.HA1-2(PR8), produced in E. coli (protein)
chain: MAQVINTNSLSLLTQNNLNKSQSALGTAIERLSSGLRINSAKDDAAGQAIANRFTANIKGLTQASRNANDGISIAQTTEGALNEINNNLQRVRELAVQSANSTNSQSDLDSIQAEITQRLNEIDRVSGQTQFNGVKVLAQDNTLTIQVGANDGETIDIDLKQINSQTLGLDSLNVQKAYDVKDTAVTTKAYANNGTTLDVSGLDDAAIKAATGGTNGTASVTGGAVKFDADNNKYFVTIGGFTGADAAKNGDYEVNVATDGTVTLAAGATKTTMPAGATTKTEVQELKDTPAVVSADAKNALIAGGVDATDANGAELVKMSYTDKNGKTIEGGYALKAGDKYYAADYDEATGAIKAKTTSYTAADGTTKTAANQLGGVDGKTEVVTIDGKTYNASKAAGHDFKAQPELAEAAAKTTENPLQKIDAALAQVDALRSDLGAVQNRFNSAITNLGNTVNNLSEARSRIEDSDYATEVSNMSRAQILQQAGTSVLAQANQVPQNVLSLLAKGIAPLQLGKCNIAGWLLGNPECDPLLPVRSWSYIVETPNSENGICYPGDFIDYEELREQLSSVSSFERFEIFPKESSWPNHNTNGVTAACSHEGKSSFYRNLLWLTEKEGSYPKLKNSYVNKKGKEVLVLWGIHHPPNSKEQQNLYQNENAYVSVVTSNYNRRFTPEIAERPKVRDQAGRMNYYWTLLKPGDTIIFEANGNLIAPMYAFALSRGFGSGIITS
Work on B1 yielded a TLR5 activity (EC50, ng/ml) of 0.15 ng/mL.

B2: STF2.EIII+ (protein)
chain: MAQVINTNSLSLLTQNNLNKSQSALGTAIERLSSGLRINSAKDDAAGQAIANRFTANIKGLTQASRNANDGISIAQTTEGALNEINNNLQRVRELAVQSANSTNSQSDLDSIQAEITQRLNEIDRVSGQTQFNGVKVLAQDNTLTIQVGANDGETIDIDLKQINSQTLGLDSLNVQKAYDVKDTAVTTKAYANNGTTLDVSGLDDAAIKAATGGTNGTASVTGGAVKFDADNNKYFVTIGGFTGADAAKNGDYEVNVATDGTVTLAAGATKTTMPAGATTKTEVQELKDTPAVVSADAKNALIAGGVDATDANGAELVKMSYTDKNGKTIEGGYALKAGDKYYAADYDEATGAIKAKTTSYTAADGTTKTAANQLGGVDGKTEVVTIDGKTYNASKAAGHDFKAQPELAEAAAKTTENPLQKIDAALAQVDALRSDLGAVQNRFNSAITNLGNTVNNLSEARSRIEDSDYATEVSNMSRAQILQQAGTSVLAQANQVPQNVLSLLRKGNSKLEGQLEFPRTSMEKLQLKGTTYGVCSKAFKFLGTPADTGHGTVVLELQYTGTDGPCKVPISSVASLNDLTPVGRLVTVNPFVSVATANAKVLIELEPPFGDSYIVVGRGEQQINHHWHKSGSSIGK
B2 was tested, and the TLR-5 EC50 (batch 052) was > 5000 ng/mL, the TLR-5 EC50 (batch 054) was 1200 ng/mL and the TLR-5 EC50 (batch 057) was 198 ng/mL.

B3: STF2.HA1-2(PR8)mut, produced in E. coli (protein)
chain: MAQVINTNSLSLLTQNNLNKSQSALGTAIERLSSGLRINSAKDDAAGQAIANRFTANIKGLTQASRNANDGISIAQTTEGALNEINNNLQRVRELAVQSANSTNSQSDLDSIQAEITQRLNEIDRVSGQTQFNGVKVLAQDNTLTIQVGANDGETIDIDLKQINSQTLGLDSLNVQKAYDVKDTAVTTKAYANNGTTLDVSGLDDAAIKAATGGTNGTASVTGGAVKFDADNNKYFVTIGGFTGADAAKNGDYEVNVATDGTVTLAAGATKTTMPAGATTKTEVQELKDTPAVVSADAKNALIAGGVDATDANGAELVKMSYTDKNGKTIEGGYALKAGDKYYAADYDEATGAIKAKTTSYTAADGTTKTAANQLGGVDGKTEVVTIDGKTYNASKAAGHDFKAQPELAEAAAKTTENPLQKIDAALAQVDALRSDLGAVQNRFNSAITNLGNTVNNLSEARSRIEDSDYATEVSNMSRAQILQQAGTSVLAQANQVPQNVLSLLAKGAAPLQLGKCNIAGWLLGNPECDPLLPVRSWSDIAETPNSENGICYPGDFIDYEELREQLSSVSSFERFEIFPKESSWPNHNTNGVTAACSHEGKSSFYRNLLWLTEKEGSYPKLKNSYVNKKGKEVLVLWGIHHPPNSKEQQNLYQNENAYVSVVTSNYNRRFTPEIAERPKVRDQAGRMNYYWTLLKPGDTIIFEANGNLIAPMYAFALSRGFGSGIITS
For B3, the TLR5 activity (EC50, ng/ml) was 1.2 ng/mL.

B4: STF2.HA1-3(PR8), produced in E. coli (protein)
chain: MAQVINTNSLSLLTQNNLNKSQSALGTAIERLSSGLRINSAKDDAAGQAIANRFTANIKGLTQASRNANDGISIAQTTEGALNEINNNLQRVRELAVQSANSTNSQSDLDSIQAEITQRLNEIDRVSGQTQFNGVKVLAQDNTLTIQVGANDGETIDIDLKQINSQTLGLDSLNVQKAYDVKDTAVTTKAYANNGTTLDVSGLDDAAIKAATGGTNGTASVTGGAVKFDADNNKYFVTIGGFTGADAAKNGDYEVNVATDGTVTLAAGATKTTMPAGATTKTEVQELKDTPAVVSADAKNALIAGGVDATDANGAELVKMSYTDKNGKTIEGGYALKAGDKYYAADYDEATGAIKAKTTSYTAADGTTKTAANQLGGVDGKTEVVTIDGKTYNASKAAGHDFKAQPELAEAAAKTTENPLQKIDAALAQVDALRSDLGAVQNRFNSAITNLGNTVNNLSEARSRIEDSDYATEVSNMSRAQILQQAGTSVLAQANQVPQNVLSLLANSENGICYPGDFIDYEELREQLSSVSSFERFEIFPKESSWPNHNTNGVTAACSHEGKSSFYRNLLWLTEKEGSYPKLKNSYVNKKGKEVLVLWGIHHPPNSKEQQNLYQNENAYVSVVTSNYNRRFTPEIAERPKVRDQAGRMNYYWTLLKPGDTIIFEANGNLIAPMYAFALSRG
Work on B4 yielded a TLR5 activity (EC50, ng/ml) of 1.2 ng/mL.

B5: STF2.HA1-1His(PR8), produced in Baculovirus (protein)
chain: AQVINTNSLSLLTQNNLNKSQSALGTAIERLSSGLRINSAKDDAAGQAIANRFTANIKGLTQASRNANDGISIAQTTEGALNEINNNLQRVRELAVQSANSTNSQSDLDSIQAEITQRLNEIDRVSGQTQFNGVKVLAQDNTLTIQVGANDGETIDIDLKQINSQTLGLDSLNVQKAYDVKDTAVTTKAYANNGTTLDVSGLDDAAIKAATGGTNGTASVTGGAVKFDADNNKYFVTIGGFTGADAAKNGDYEVNVATDGTVTLAAGATKTTMPAGATTKTEVQELKDTPAVVSADAKNALIAGGVDATDANGAELVKMSYTDKNGKTIEGGYALKAGDKYYAADYDEATGAIKAKTTSYTAADGTTKTAANQLGGVDGKTEVVTIDGKTYNASKAAGHDFKAQPELAEAAAKTTENPLQKIDAALAQVDALRSDLGAVQNRFNSAITNLGNTVNNLSEARSRIEDSDYATEVSNMSRAQILQQAGTSVLAQANQVPQNVLSLLASGSGSGSSHNGKLCRLKGIAPLQLGKCNIAGWLLGNPECDPLLPVRSWSYIVETPNSENGICYPGDFIDYEELREQLSSVSSFERFEIFPKESSWPNHNTNGVTAACSHEGKSSFYRNLLWLTEKEGSYPKLKNSYVNKKGKEVLVLWGIHHPPNSKEQQNLYQNENAYVSVVTSNYNRRFTPEIAERPKVRDQAGRMNYYWTLLKPGDTIIFEANGNLIAPMYAFALSRGFGSGIITSNASMHECNTKCQTPLGAINSSLPYQNIHPVTIGECPKYVRHHHHHH
Work on B5 yielded a TLR activity (EC50, ng/ml) of 3 ng/mL.
